Source: patent US12378324B2, “Anti superoxide dismutase 1 (SOD1) antibodies and use thereof” (B. G. NEGEV TECHNOLOGIES AND APPLICATIONS LTD., AT …, priority 2018, dated 2025)

Assays:
Format in all cases: binding
apo-SOD1^WT = apo-SOD1^WT (Homo sapiens, UniProt P00441); test: ELISA of hybridoma supernatants with SOD1 variants as coating antigens; conditions: WT in the absence of Cu2+ and Zn2+, similar to SOD1^G93A and SOD1^G85R
Excerpt: (§1) FIGS. 1A-1B are an image and a graph showing (1A) the surface pocket shaped by the two β6/β7 loops (arrows) in the intact SOD1^WT dimer, and (1B) the results of enzyme linked immunosorbent assay (ELISA) of supernatants of several hybridoma clones expressing anti-β6/β7-loop monoclonal antibody (mAb) using SOD1 variants as coating antigens. NC—negative control. WT—wild type; apo—WT in the absence of metals (Cu^2+ and Zn^2+); holo—WT in the presence of metals (Cu^2+ and Zn^2+); G93A—Glycine at position 93 was substituted to Alanine; G85R—Glycine at position 85 was substituted to Arginine; antigen peptide—peptide used to produce the disclosed mAb.
(§2) The loss of stabilizing metals, especially Zn^2+ is considered as the primary event which triggers the noxious structural transformation of SOD1, ultimately resulting in amyloid aggregation. Therefore, it is possible that the exposure of the β6/β7 loop epitope represents an early manifestation of the SOD1 noxious misfolding, and it is a common feature for both SOD1^WT and fALS SOD1^MUT. This early β6/β7 loop epitope is fundamentally different from the late epitopes of misfolded SOD1 such as those exposed on the dimer interface upon SOD1 monomerization; they correspond to the advanced stages of SOD1 misfolding and are apparently irreversible.

holo-SOD1^WT = holo-SOD1^WT (Homo sapiens, UniProt P00441); test: as above; conditions: apo-SOD1^WT saturated with Cu2+ and Zn2+ by dialysis
Excerpt: as §1, §2

[1] = test system: misfolded familial ALS (fALS) mutants of SOD1 (SOD1^G93A and SOD1^G85R); test: as above; conditions: FIG. 1B, SOD1^G93A and SOD1^G85R vs intact SOD1^WT
Excerpt: as §1, §2

[2] = test system: misfolded SOD1 variants (apo-SOD1^WT, holo-SOD1^WT, apo-SOD1^G93A, apo-SOD1^G85R); test: ELISA of secreted scFv-Ab (supernatant of transfected HEK 293 cells) on SOD1 variants; conditions: FIG. 2, HEK 293 supernatant, anti-c-myc detection
Excerpt: Binding of secreted scFv-Ab (as supernatant of HEK 293 cells transfected with the vector expressing scFv-Ab) to SOD1 variant (apo-SOD1^WT, holo-SOD1^WT, apo-SOD1^G93A, and apo-SOD1^G85R), was quantified by enzyme-linked immunosorbent assay (ELISA).
The inventors have constructed a single-chain fragment variable antibody (scFv-mAb), representing a hybrid protein that comprises both heavy and light chain variable Ig regions of the anti-β6/β7-loop mAb connected by a short flexible linker (linker length 15-20 amino acids). The advantages of single-chain antibody are its small size, low immunogenicity and increased half-life (due to the reduced clearance via Fc-mediated microglia phagocytosis), and the ability to be used in a gene delivery system, such as recombinant adeno-associated virus, AAV6, for intra- or extracellular expression. AAV vectors have a broad cell type tropism, provide stable and safe gene expression and minimize immune response. […] Recent advances in AAV vector engineering enabled these vectors (AAV9) to be injected directly IV to obtain efficient CNS expression DNA sequences encoding the scFv-Ab of the invention were further optimized in terms of the codon usage for expression in mammalian cells (e.g., murine). […]

Chain of apo-SOD1^WT (P00441 2-154 limits assumed): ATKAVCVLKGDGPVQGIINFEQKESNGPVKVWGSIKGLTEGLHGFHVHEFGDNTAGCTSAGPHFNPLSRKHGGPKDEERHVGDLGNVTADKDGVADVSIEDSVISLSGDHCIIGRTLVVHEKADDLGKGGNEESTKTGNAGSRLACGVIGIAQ
Chain of holo-SOD1^WT (P00441 2-154 limits assumed): as above

B1: 6D12B10: rat monoclonal antibody against the β6/β7 loop of SOD1, raised with KLH-conjugated SE-21 peptide (antibody, V domains shown)
VH: QIQLVQSGPELKKPGESVSISCKASGYTFTDSAIHWVKQAPGKGLKYMGWINTYTGKPTYADDFKGRFVFSLEASASTAKLQISNLKSEDTATFFCARSVYSYDGTFYRYFLDAWGQGASVTVSS
VL: DTVLTQSPALAVSPGEKVTISCRASESVSKHIHWFQQKSGQQPTLLIYLASSLESGVPARFSGSGSGTDFTLTIDPVEADDTATYYCQQSWNDPWTFGGGTKLELK
recognition of metal-free apo-SOD1^WT (apo-SOD1^WT): recognized metal-free apo-SOD1^WT as misfolded protein | mAb binding to holo-SOD1^WT (holo-SOD1^WT): completely abolished mAbs binding | discrimination between the intact SOD1^WT and misfolded fALS mutants of SOD1 [1]: complete discrimination

B2: scFv-Ab: single-chain fragment variable antibody: heavy and light chain variable regions of the anti-β6/β7-loop mAb joined by a flexible linker (protein)
scFv: QIQLVQSGPELKKPGESVSISCKASGYTFTDSAIHWVKQAPGKGLKYMGWINTYTGKPTYADDFKGRFVFSLEASASTAKLQISNLKSEDTATFFCARSVYSYDGTFYRYFLDAWGQGASVTVSSGGGGSGGGGSGGGGSDTVLTQSPALAVSPGEKVTISCRASESVSKHIHWFQQKSGQQPTLLIYLASSLESGVPARFSGSGSGTDFTLTIDPVEADDTATYYCQQSWNDPWTFGGGTKLELKGGGGS
modifications: left off: small tags and cut ends
notes: single-chain fragment variable antibody: heavy and light chain variable regions of the anti-β6/β7-loop mAb joined by a flexible linker
binding of scFv-Ab to SOD1 variants [2]: selectively recognizes misfolded SOD1 variants
